Drawing on PMC11369174, “Proteome-scale characterisation of motif-based interactome rewiring by disease mutations” (Molecular Systems Biology, 2024), this text covers max_promiscuity and max_specificity for four molecules.

The test system of assay [1] is KPNA4 ARM. The assay can be described thus: GenVar_HD2 ProP-PD phage selection, KPNA4 ARM. Type of assay: binding, human. The following applies: bait-prey protein level, bait_accession O00629.
In assay [2] the target is ABL1 SH3 (Homo sapiens, UniProt P00519). The assay can be described thus: GenVar_HD2 ProP-PD phage selection, ABL1 SH3. Type of assay: binding. The following applies: bait domain-prey protein level, bait ABL1_SH3__P00519_60_121.
ABL1 SH3, sequence (P00519 60-121): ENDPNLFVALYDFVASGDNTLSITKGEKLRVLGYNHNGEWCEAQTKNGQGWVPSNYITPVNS

B1: O60832 (protein, UniProt O60832 1-514, looked up)
chain: MADAEVIILPKKHKKKKERKSLPEEDVAEIQHAEEFLIKPESKVAKLDTSQWPLLLKNFDKLNVRTTHYTPLACGSNPLKREIGDYIRTGFINLDKPSNPSSHEVVAWIRRILRVEKTGHSGTLDPKVTGCLIVCIERATRLVKSQQSAGKEYVGIVRLHNAIEGGTQLSRALETLTGALFQRPPLIAAVKRQLRVRTIYESKMIEYDPERRLGIFWVSCEAGTYIRTLCVHLGLLLGVGGQMQELRRVRSGVMSEKDHMVTMHDVLDAQWLYDNHKDESYLRRVVYPLEKLLTSHKRLVMKDSAVNAICYGAKIMLPGVLRYEDGIEVNQEIVVITTKGEAICMAIALMTTAVISTCDHGIVAKIKRVIMERDTYPRKWGLGPKASQKKLMIKQGLLDKHGKPTDSTPATWKQEYVDYSESAKKEVVAEVVKAPQVVAEAAKTAKRKRESESESDETPPAAPQLIKKEKKKSKKDKKAKAGLESGAEPGDGDSDTTKKKKKKKKAKEVELVSE
modifications: full-length
In assay [1], B1 showed a max_promiscuity of 3 and a max_specificity of 1.

B2: FANCG (protein, UniProt O15287 1-622, looked up)
Fanconi anemia group G protein: MSRQTTSVGSSCLDLWREKNDRLVRQAKVAQNSGLTLRRQQLAQDALEGLRGLLHSLQGLPAAVPVLPLELTVTCNFIILRASLAQGFTEDQAQDIQRSLERVLETQEQQGPRLEQGLRELWDSVLRASCLLPELLSALHRLVGLQAALWLSADRLGDLALLLETLNGSQSGASKDLLLLLKTWSPPAEELDAPLTLQDAQGLKDVLLTAFAYRQGLQELITGNPDKALSSLHEAASGLCPRPVLVQVYTALGSCHRKMGNPQRALLYLVAALKEGSAWGPPLLEASRLYQQLGDTTAELESLELLVEALNVPCSSKAPQFLIEVELLLPPPDLASPLHCGTQSQTKHILASRCLQTGRAGDAAEHYLDLLALLLDSSEPRFSPPPSPPGPCMPEVFLEAAVALIQAGRAQDALTLCEELLSRTSSLLPKMSRLWEDARKGTKELPYCPLWVSATHLLQGQAWVQLGAQKVAISEFSRCLELLFRATPEEKEQGAAFNCEQGCKSDAALQQLRAAALISRGLEWVASGQDTKALQDFLLSVQMCPGNRDTYFHLLQTLKRLDRRDEATALWWRLEAQTKGSHEDALWSLPLYLESYLSWIRPSDRDAFLEEFRTSLPKSCDL
On to B2, for which, in assay [2], the max_promiscuity was determined as 5 and the max_specificity stood at 1.

B3: O60934 (protein, UniProt O60934 1-754, looked up)
chain: MWKLLPAAGPAGGEPYRLLTGVEYVVGRKNCAILIENDQSISRNHAVLTANFSVTNLSQTDEIPVLTLKDNSKYGTFVNEEKMQNGFSRTLKSGDGITFGVFGSKFRIEYEPLVACSSCLDVSGKTALNQAILQLGGFTVNNWTEECTHLVMVSVKVTIKTICALICGRPIVKPEYFTEFLKAVESKKQPPQIESFYPPLDEPSIGSKNVDLSGRQERKQIFKGKTFIFLNAKQHKKLSSAVVFGGGEARLITEENEEEHNFFLAPGTCVVDTGITNSQTLIPDCQKKWIQSIMDMLQRQGLRPIPEAEIGLAVIFMTTKNYCDPQGHPSTGLKTTTPGPSLSQGVSVDEKLMPSAPVNTTTYVADTESEQADTWDLSERPKEIKVSKMEQKFRMLSQDAPTVKESCKTSSNNNSMVSNTLAKMRIPNYQLSPTKLPSINKSKDRASQQQQTNSIRNYFQPSTKKRERDEENQEMSSCKSARIETSCSLLEQTQPATPSLWKNKEQHLSENEPVDTNSDNNLFTDTDLKSIVKNSASKSHAAEKLRSNKKREMDDVAIEDEVLEQLFKDTKPELEIDVKVQKQEEDVNVRKRPRMDIETNDTFSDEAVPESSKISQENEIGKKRELKEDSLWSAKEISNNDKLQDDSEMLPKKLLLTEFRSLVIKNSTSRNPSGINDDYGQLKNFKKFKKVTYPGAGKLPHIIGGSDLIAHHARKNTELEEWLRQEMEVQNQHAKEESLADDLFRYNPYLKRRR
modifications: full-length
Take B3: in assay [1], the max_promiscuity is 1 and the max_specificity is reported as 1.

B4: ESPN (protein, UniProt B1AK53 1-854, looked up)
Espin: MALEQALQAARQGELDVLRSLHAAGLLGPSLRDPLDALPVHHAARAGKLHCLRFLVEEAALPAAARARNGATPAHDASATGHLACLQWLLSQGGCRVQDKDNSGATVLHLAARFGHPEVVNWLLHHGGGDPTAATDMGALPIHYAAAKGDFPSLRLLVEHYPEGVNAQTKNGATPLYLACQEGHLEVTQYLVQECGADPHARAHDGMTPLHAAAQMGHSPVIVWLVSCTDVSLSEQDKDGATAMHFAASRGHTKVLSWLLLHGGEISADLWGGTPLHDAAENGELECCQILVVNGAELDVRDRDGYTAADLSDFNGHSHCTRYLRTVENLSVEHRVLSRDPSAELEAKQPDSGMSSPNTTVSVQPLNFDLSSPTSTLSNYDSCSSSHSSIKGQHPPCGLSSARAADIQSYMDMLNPELGLPRGTIGKPTPPPPPPSFPPPPPPPGTQLPPPPPGYPAPKPPVGPQAADIYMQTKNKLRHVETEALKKELSSCDGHDGLRRQDSSRKPRAFSKQPSTGDYYRQLGRCPGETLAARPGMAHSEEVRARQPARAGCPRLGPAARGSLEGPSAPPQAALLPGNHVPNGCAADPKASRELPPPPPPPPPPLPEAASSPPPAPPLPLESAGPGCGQRRSSSSTGSTKSFNMMSPTGDNSELLAEIKAGKSLKPTPQSKGLTTVFSGIGQPAFQPDSPLPSVSPALSPVRSPTPPAAGFQPLLNGSLVPVPPTTPAPGVQLDVEALIPTHDEQGRPIPEWKRQVMVRKMQLKMQEEEEQRRKEEEEEARLASMPAWRRDLLRKKLEEEREQKRKEEERQKQEELRREKEQSEKLRTLGYDESKLAPWQRQVILKKGDIAKY
In assay [2], B4 registered a max_promiscuity of 2 and a max_specificity of 0.8421.
